Values belong to the molecule of their own block, whether it stands above or below them.
Experiments:
[1] = biological target: G-CSFR (Homo sapiens) (UniProt Q99062); experiment: ITC; conditions: cited from earlier work
[2] = biological target: G-CSFR (Homo sapiens) (UniProt Q99062); experiment: SPR; conditions: cited from earlier work
[3] = biological target: T1, G-CSF Receptor (G-CSFR) (human, UniProt Q99062 25-333); experiment: SPR; G-CSFR amine-coupled on a CM5 chip (Biacore X100), analytes flowed over, multi-cycle kinetics, 25 °C, 10 mM HEPES pH 7.4, 150 mM NaCl, 3.4 mM EDTA, 0.005% Tween-20; 1:1 model, linear fit of kobs against concentration; legend speaks of apparent affinity for the bivalent ligands; conditions: both partners purified
T1 construct: G-CSF receptor (G-CSFR), human, bought recombinant protein; In the functional rows the receptor is the one on the cells of the test (murine NFS-60 or human CD34+ HSPCs); also called human G-CSFR; human G-CSF receptor; source: bought: R&D systems 381-GR-050/CF
T1 sequence: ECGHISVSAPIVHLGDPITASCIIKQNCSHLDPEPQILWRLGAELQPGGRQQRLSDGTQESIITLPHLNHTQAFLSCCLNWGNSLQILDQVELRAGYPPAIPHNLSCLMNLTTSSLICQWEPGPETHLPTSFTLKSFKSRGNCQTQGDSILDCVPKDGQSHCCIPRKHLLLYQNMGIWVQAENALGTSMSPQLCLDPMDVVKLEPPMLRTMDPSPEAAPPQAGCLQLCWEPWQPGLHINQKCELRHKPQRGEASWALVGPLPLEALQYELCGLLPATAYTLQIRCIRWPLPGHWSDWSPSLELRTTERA

Molecule: G-CSF (from UniProt P09919)
Kd [1]: 1.4 nM | Kd [2]: 0.2 nM

Kd [3]: 1.1 nM | koff [3]: 0.00049 s⁻¹ | kon [3]: 300000 M⁻¹ s⁻¹
B1: Recombinant human G-CSF (rhG-CSF), USP RS Filgrastim (ligand, UniProt P09919-2 31-204, looked up)
chain: TPLGPASSLPQSFLLKCLEQVRKIQGDGAALQEKLCATYKLCHPEELVLLGHSLGIPWAPLSSCPSQALQLAGCLSQLHSGLFLYQGLLQALEGISPELGPTLDTLQLDVADFATTIWQQMEELGMAPALQPTQGAMPAFASAFQRRAGGVLVASHLQSFLEVSYRVLRHLAQP
notes: granulocyte-colony stimulating factor (G-CSF), human, recombinant; printed length 174 amino acids; also called granulocyte-colony stimulating factor; wild-type G-CSF; source: bought: USP RS Filgrastim, Sigma-Aldrich 1270435
